# Assay results published in the DeepSol protein solubility set.
# Assay: soluble on expression in E. coli; label from the status in PepcDB or PDB records
row,Sequence,soluble on expression in E. coli
1,MARPIGIYEKATPKQFTWRERLQFAKDLGFDFVEMSVDESDARLARLEWTKEERLDLVKAIYETGIRIPTICFSGHRRYPLGSNDPAIEAKSLKLMKQCIELAQDLGVRTIQLAGYDVYYEKKSPETRARFIKNLRQSCDWAEEAQVMLSIEIMDDPFINSIEKYLAVEKEIDSPYLFVYPDAGNVSAWHNDLWSEFYNGHKSIAALHLKDTYAVTETSKGQFRDVPFGQGCVDWQELFAVLKKTNYNGPFLIEMWSENCDTVEETKAAIKEAQDFLYPLIEKAGLT,not soluble
2,MARQTKPLSVKEIESAKPKEADYVLYDGDGLELLIKSSGSKIWQFRYIRPVTKTRAKKSIGPYPSVTLADARNYRAESRSLLAKQIDPQEHQQEQLRSSLEAKTNTFQLVAERWWNVKKASVTEDYAEDIWRSLERDVFPAIGDVSVTDIKAHTLVQAVQPVQARGALETVRRLCQRINEVMIYAQNTGLIDAVPSVNIGKAFEKPQKKNMPSIRPDQLSQLMQTMRTASISLSTRCLFMWQLLTITRPAEAAEARWEEVDIEAQEWKIPAARMKMNRDHTVPLSDEAIAVLEMMKPLSGNREFIFPSRIKPNQPMNSQTVNASLKRAGFGGVLVSHGLRSIASTALNEQGFPPDAIEAALAHVDKNEVRRAYNRSDYLEQRRPMMQWWANFVMAADRGSMIEGGIKGMKLVG,not soluble
3,MARRGNKAIRATVSMKIALSEPLLVLVNNYVKALRFTLFWLKENVPNPEEKGVLSKVHEALYEKLREEYNLPSKVAEDCYREALATYKGWYNNPRRGRFPRVYRPTVWLTPRASYNVDFEAMTVRIVSVGELSILGYPRNLKEYMGWKMKEARLVIRDDKAFLKVVFEKEEQKVEPKESIAVDINMAEVVVGKDDKNYVRIPTRLEEVHHWKSLAERLLKKYPRRWRENKRILYRVRSFHLKARRIMEDFARKVGKWVVDVAKRMGVNVIKLESLKNLIKSVEKLSKEFRDKLYLMQYRRLQYWISWQAKKRGMTVEFVNPSYSSVSCPKCGKRMVEVSHRWFKCSCGYENDRDVIAIMNLNGRGSLTLSTAPQMRDVNPNRLEHHHHHH,not soluble
4,MARRNSSIKPVFCFFAEFCMVSTSLWMDTEILPEASALKGDVHCDVAVVGSGIAGLSTAYELSKRDQSVIVIDRKGIASGMTARTSAHLAPLCDDLMSEFRKLRGPEIAKLFYESQAAAVDRIEEIQASETIACDFRRLDGYLFQGHGMPADVLDEELEAVREVGAPVHRLVGVPLKGCENRHVLRYPRQATFHPLKYLAGVAAVCQTHGVRFFANSPVEEVAQGDGDVTLRTAQGQITAGNAVIATNASITDRYQLHSKVAPYRTYVLAFAIARGELPDALYWDTEDPYHYVRLQLGSDDHDVVLIGGEDHKSGEANDAEKRFAKLESWARELIPGLGRVTHRWSGQVLDTIDYAGFIGREPGSERIYLAMGDSGQGLTHGVMGAMLNTSLILGEHNPWSAVYAPGRTPLAAARNFLRENLTILQNLAEYVAPGEIASLEKIEPSEGAILRRGFEKIAAYRDKAGELHLHSASCTHIGCHLHWNSFETCWDCPCHGSIFAPNGQPINAPAVSALRPVKVLEHHHHHH,not soluble
5,MARTAAALHILVKHKEQADDILAQLKKGAKFHVLAKKYSTCPSGKKGGDLGEFRQGQMVPAFDKACFQGEVLTPQLVKTKFGWHVVKVLYRT,not soluble
6,MASAHQTPADANGGESRDEILRAAAELFMEFGYAATSIDAVAQRLGSTKGRIYHHYRSKADLFFDVQVTAMNRLTAQVEPLAREGGGAVGRLAAMALRHTQILLKEMPMQKVAVQGLERHLLEASSAAKRLRAVVKMRDDYEQMFVEVIDDGIREGSFVDLPPRLLSKPFFGALNWATVWYSQRRLQSEEAIDDIAHALAAYALRGLLKDSNDEAARETALFRYDLG,not soluble
7,MASALRPPRVPKPKGVLPSHYYESFLEKKGPCDRDYKKFWAGLQGLTIYFYNSNRDFQHVEKLNLGAFEKLTDEIPWGSSRDPGTHFSLILRNQEIKFKVETLECREMWKGFILTVVELRVPTDLTLLPGHLYMMSEVLAKEEARRALETPSCFLKVSRLEAQLLLERYPECGNLLLRPSGDGADGVSVTTRQMHNGTHVVRHYKVKREGPKYVIDVEQPFSCTSLDAVVNYFVSHTKKALVPFLLDEDYEKVLGYVEADKENGENVWVAPSAPGPGPAPCTGGPKPLSPASSQDKLPPLPPLPNQEENYVTPIGDGPAVDYENQDVASSSWPVILKPKKLPKPPAKLPKPPVGPKPEPKVFNGGLGRKLPVSSAQPLFPTAGLADMTAELQKKLEKRRALEH,soluble
8,MASCQKSIFLGRLTTFTDSNISPTSLIFSSKMSSRTLRSSSSSNAISTKTQPKTEEAPLIPVTKGPVIRMTSNMADKAQNDHSMWPSTSKFESIWGNVLGERVNKSTIAAIREGMKIENKVTCGCRPGQDCSTNPACRCFQTASRLREHFGSDILTRGKPVKTVDTMYWDRPMFACSGSCGCKGQCNLNALQDICEDPAKKFKITRTDGKGFCVYSARVIKKGSPVLEFSGEITDYLAIKSNADIEQYSIMLYNNETKLCDFFSKEENLSSKYKKILWSAYRSKAWINPLNRGNCARFFSHGCKANMELGRVFQGGFSPADMKIVLFAKEIIKPGTELTFNYGPSYKEIFLGNKCLCEACKKEAVKKLENAVKRILKNSRDPSEPPSKKKSVKKLDGKENVR,not soluble
9,MASFIDLSSADLSPLSGALHGPDRVARALLIQGGALVPPRPMLWPCAGDMLNGLHILGDLHAPDVDLLVAKRVVAGGSGAHLKLDDQLVYAEGAYPYYVQHWYQHDIARQAWDFDAPVTHRLDRAFVITHFNFVWGHWLTEMYPKLFVIRALNAAGITAPLLLPRTAPGYVARIVRMMLPDQEIVTYDPRDEAVEIGAALLPHMLNRNYVFHDFLRWNLEREALSFTKGGDADMLFVSRGGVRTAQSFRELENEAEIEGLAQEAGLTLVRPETLGWDQQARLFSRARLVAGEFGSGLHNALLSPQGCQVVSLNWLVEVQSRIGNFRRHDVGYILPADGQARLYSIEPQANQPFTIDPVEFRQKLAIAVDRAQARKAMAGWDDAPFPVDTPELRLLEHHHHHH,soluble
10,MASGTASMQRPSIEKEPYYHGFLPREDVKTVLKNNGDFVIRISEPQAGSPRSNILSVMHCVPPMEEEIKHYVIKTKGDKIFIEKVSFLSIPEMVEWHLTKKESVQKDVFLIKAISRQAWELDHDNIEPLKKLGEGAFGEVMMGTMKFRKGGKSVQVAIKQAKLSNLTKEQIKEFMGEARVMRSLSHPHVVRFYGVPRRRVNVALCRSLNEFLAKCHRKLRCATPFFVCMSVNWLSVLNELRVFLE,not soluble
11,MASIAVCPGSFDPVTYGHLDIIKRGAHIFEQVYVCVLNNSSKKPLFSVEERCELLREVTKDIPNITVETSQGLLIDYARRKNAKAILRGLRAVSDFEYEMQGTSVNRVLDESIETFFMMANNQYSFLSSSIVKEVARYDGSVSEFVPPEVELALQQKFRQGGSHHHHHH,soluble
12,MASIINKQIISPTGRNMEIINYEILKKYPLCDRCFGRLYAKLLHTTNTERGRALKLYKALELEAKIKKAKEKGINYEEELELLKALAKSGVDEIRLEDIEIEKENCPWCRGIFNKQKMEKLLNKAIELLKEYDFDTFLIGTHIPEEIKDLEKEIETEFMESIKQEFGREFGKMLAVRLDKAPDKEYPDIVVHINPYTEEIYLQINPLFIKGRYRKLVRGIPQTRWPCRKCRGKGCELCNYTGKKYPISVEEIIAKPFLEATKGVDAKFHGAGREDIDVRMLGDGRPFVLEIKEPKIRKIDLNKIAEEINKDGRVEVLNLEFGVRKDKVIFKNTPHRKTYRALVECSDKITDEELKLLEKELENRTIYQKTPKRVLHRRADLERIRKVYKVKTSKVDDNHFEMIIYCDGGLYIKELISGDDGRTNPSVSSILNKNCICKELDVLKIHDNNLLEKG,soluble
13,MASQPTNAVSAEQLMLSKMQAMQAQVQPPEFIVSANPLDQQALNAPLSFSQAMTNVLDTVNQHQSAASQKMTAVETGQSDDLVGAMVASQKASLSFNALMQVRNKVVASFEDIMKMPV,not soluble
14,MASRLFGVKCHNTDSEPLKNEDLLKNLLTMGVDIDMARKRQPGVFHRMITNEQDLKMFLLSKGASKEVIASIISRYPRAITRTPENLSKRWDLWRKIVTSDLEIVNILERSPESFFRSNNNLNLENNIKFLYSVGLTRKCLCRLLTNAPRTFSNSLDLNKQMVEFLQAAGLSLGHNDPADFVRKIIFKNPFILIQSTKRVKANIEFLRSTFNLNSEELLVLICGPGAEILDLSNDYARRSYANIKEKLFSLGCTEEEVQKFVLSYPDVIFLAEKKFNDKIDCLMEENISISQIIENPRVLDSSISTLKSRIKELVNAGCNLSTLNITLLSWSKKRYEAKLKKLSRFAHHHHHH,soluble
15,MASRVDETTVPSYYYYVDPETTYTYQQPNPLQDLISVYGLDDISRQVARTNLDGTKAVKLRKSYKNQIADLSGKFSTIPTRENGKGGQIAHILFQNNPDMMIQPPQQGQNMSEQQWREQLRNRDIALFQPPNFDWDLCSSVLSQFERSYPSEFANQNQGGAQAPFDIDDLAFDLDGTGKSQSGSNSGNNSKKRKNKSSGSSMATPTHSDSHEDMKRRRLE,soluble
16,MASSGYLYSLVAEDGVWQAFVSKAKLSRERAVALHKALRELTALLAIADRGRLQKGLKGREKFLKVFPRLKAELVEHISQLHALADHAEKLHRGCTISNVVADSFSAASDILSLLGLFLAPVTAEGSLVLSATGLGLGVAATVTDVATSIVEETSRVLDEVEAAPTGTHVLGEAGTSVDRIASKVPQATRDITRDLEALEQHMNALRLVRANPRLEEDARILATTGSISAQRAMQVRASLKGTPLAMSNEARIQRATAAGAALWSDVDSLVKESKHLYEGSASESAEALRKLARELEEKLEGLMEFYKTI,soluble
17,MASTARSLRYALAILTTSLVTPSVWAHAHLTHQYPAANAQVTAAPQAITLNFSEGVETGFSGAKITGPKNENIKTLPAKRNEQDQKQLIVPLADSLKPGTYTVDWHVVSVDGHKTKGHYTFSVK,soluble
18,MASTDTYNPTRDDFAAMLDESFAGGNLQESSVIKGKVVAIEKDMAVIDVGLKTEGRVPLREFAGPGRDNEIKVGDTVEVFLDRIENALGEAVLSRDKARREESWGKLEKAFQNNEKVFGVIFNQVKGGFTVDLDGAVAFLPRSQVDIRPIRDVAPLMNNSQPFQILKMDRRRGNIVVSRRTVLEETRAEQRQELVQNLEEGQVIDGVVKNITDYGAFVDLGGIDGLLHVTDIAWRRVNHPTEVLTIGQTVKVKIIKINHETHRISLGMKQLLDDPWQGIEAKYPLNARFTGRVTNITDYGAFVELEPGIEGLIHVSEMSWTKKNMHPGKIVSTSQEVEVQVLEVDSVKRRISLGLKQTMRNPWEVFVEKHPVGSTVEGEVKNKTEFGLFLGLDGDVDGMVHLSDLDWKLPGEQVIDNFKKGDMVKAVVLDVDVEKERISLGVKQLEGDPFAEPGDVKKGAVVTCEVLDVKESGIDVQIVGTDFNTFIKRSELARDRNDQRSDRFAVGEKVDARVIQFDKKARKVQVSIKALEVAEEKEAIAQYGSSDSGATLGDILGTALKQRDKLEHHHHHH,soluble
19,MASTVLNVPIAQPENGSSDKIPKWSARAIKSLAMGELEARKLKYPSTGTEAILMGILVEGTSTVAKFLRGNGVTLFKVRDETLSLLGKSDMYFFSPEHPPLTEPAQKAIAWAIDEKNKSDVDGELTTAYLLLGVWSQKDSAGRQILEKLGFNEDKAKEVEKSMNEDVDLSFKKQGQLEHHHHHH,soluble
20,MATAHYHGSCQCGSVSFEVDADLDHTVICNCSRCKRLGSTLAFAPREKFTLLSGEDKLSEYLFNKHKIHHFFCSTCGIESFAYADGPDGTPMVAVNANCLDGVDPRALKSQAFDGAA,not soluble
21,MATAHYHGSCQCGSVSFEVDADLDHTVICNCSRCKRLGSTLAFAPREKFTLLSGEDKLSEYLFNKHKIHHFFCSTCGIESFAYADGPDGTPMVAVNANCLDGVDPRALKSQAFDGAAA,soluble
